According to the supplement of paper PMC9170038:

system: K4 kissing-loop RNA reporter; assay: apparent KD of K4 kissing-loop reporter; higher = weaker reporter binding; details: Eterna round: R107; input ligand: arginine 13.2 mM
Method: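 RNA-MaP round R107: designed RNA switches with theophylline, tryptophan, arginine or FMN aptamers are transcribed on-chip within common flanks. They are titrated with a labelled K4 kissing-loop RNA reporter in RNA-MaP buffer (100 mM Tris pH 7.5, 80 mM KCl, 4 mM MgCl2), without ligand or with the indicated ligand. Median apparent KD per design.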
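Further: bound reporter read as fluorescence of individual clusters on recovered sequencing chips by microscopy, with normalized cluster intensities fitted with a binding model.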

Sequence | apparent KD of K4 kissing-loop reporter [nM]
CCGAAGAACCAGUGAUGUUGGUUGACUAGACAGGAUAUGAGCAACAUCAGAAGGGUCUGGCUUCGGGAGUGGGCCGCGCUGACCU [Artilati] | 193
CCGGGCGGCUGAAGGAGCGGGCGGGCCCGAGUGAUGUUCGGGUGGGCCGUGAGGUCCGGUGCCCAGGUAGGUCGCGGUUCCGCCC [#2 Same State - Arginine B Attempt #10 (HarryS)] | 169
GCUAUGGUAGGAAGGAGCGCUGCGUUGUUUUUACGAGUGAUGUUCGGAAGCGGCGUGUUAAAGCAGGUAGGUCGCCUACUAUAGC [Arginine B K4 24] | 135
AGUGAUGUGGGAAGGAGCGCUACAAGACUUCAGUGAUGUUGAAGUGAUGAUUUAGUGUUGUAGCAGGUAGGUCGCCUAGAUGUUA [KL-XARG-B9] | 27
UGCUUAGUGAUGUUUGAUUUGGUGCAUGCAGAGGAUAUAGGGUGCUUUAGAAGGCUGAGGAGUGCGCCGAGUGAUGUUCGGCGCU [Exclusion FMN A GF11] | 164
AAAUUGUUUAGAGGAUAUUCUUUAUUCGACAUAACCUUCUAUAAGGUGCAGUGAUGUUGCAAUAUAGGAGAAGGUUGAGUGAUAA [Exclusion FMN B Gf 15] | 118
AAUAUCUAGUAUAUAUUUUAUAAAACAGAUACCAGUGAUUAUAUACACCCUUGGCAGCUGGACGAGUGAUGUUCGUAUAUAUUAA [JR_SSTheophyA_Sub008] | 188
UACAUAUAGUUAUUUCUACAUUUAUUUAGUCAGGAUAUCGAUUAGACGAGAAGGGACAAUAUCAAGUGAUGUUUGAUAAUUCAAA [JR_ExcFMNA_Sub011] | 111
CUCGAGUGAUGUUCGAUUAUUUAUACAGAUACCAGUGAAUUUUAACACCCUUGGCAGCUGGUAGUAUCUUUGUAAUUUUAACUAG [JR_ExcTheophyA_Sub003] | 181
ACCUACGAUCACGAAAGUGAUUGUAGGAUCUAGGAUAUGCUGAAGAGCAGAAGGAGAGUGAUGUUCUCAUCUCACGAAAGUGAGA [whbob_Ex_FMNA__2th190] | 206
UUUCGUUUCGUCUGACAUAAUUGGCUAGAAGGAGCGGUAAAAUUACCAGGUAGGUCGCUAGCCCAGUGAUGUUGGGACUAGCAUA [Onqudi] | 154
CGCCGGAAGGCGAGCGCUCCCACUCCGGAAGGAGCGCCCGAAAGGGCAGGUAGGUCGCCGGAGUGAUGUUCCGGUGGAGGGCUCG [#2 Exclusion - Arginine A Attempt #29 (Inspired by Omei)] | 119
GUUACGCAUGGAAGGAGCGCACUCCGAUUGAUCGACACAGUGAUGUUGUGGUUCGUUCGAAUGCAGGUAGGUCGCCAUGUGUAAC [Ex Arginine B K4 17] | 250
CUAGCUAGCAUGGAAACAUGCUAGCUAGAUUAGGAUAUGACGUAAGUCAGAAGGGAUAAAUGGAGUGAUGUUCCGGACGCAAGUC [#2 Same State - FMN A Attempt #4 (HarryS)] | 237
UAAAACGCUUGAAUAACAAGCGAAAAUUCGCGAGGACCGGUACGGCCGCCACUCGCUAACUGCGAGUGAUGUUCGAUAAUAAAAU [Mat - Mod of OpenEnded 3 - D4] | 70.1
GUGAAGGAGAUGCAGUGAUGUUGCAGAGACUAGGAUAUCAGGAAACUGAGAAGGAGUCAAUUCCUUCAUUUAGACUGCAACAUAA [KL-SSFMN-A12] | 139
GAUUCUGUUCGAAAGAACGGAAUCACGGAAGGAGCGAGAGAAAUCUCAGGUAGGUCGCCGAAUUUUUGAUAGUGAUGUUAUCAUU [Arginine A K4 2] | 353
CAUAGGAAACUAUGUUUCUCUCUUACUGAAGGAGCGCGUGAAAACGCAGGUAGGUCGCAGAAUUUAAAAGAGAGUGAUGUUCUCA [Ex Arginine A K4 11] | 374
UUAUAUUUUAUAUUUAGUAGAGCUCUCGCUCGAGGACCGGUACGGCCGCCACUCGAGUGAUGUUCGAGUGGGAGAGCUCUACAUU [AK3.3 EXC Tryptophan A] | 99.5
CGUAAGGAUUGACGACUGCAGAGCAAAAUAAAGGAUAUCGCAGCGUCGAGAAGGUUAUCGUGCGCCAGUGAUGUUGGCGGUAGUC [theeternabot_sameState_KL_FMN_A_22] | 135
UCCUGCAAUCGGCCACGAAAGUGGAUGGAUACCAGAGUCGAAAGACUCCCUUGGCAGCCAGUGAUGUUGGAAGCAGGUAAAUAAA | 499
CUAUGGAAACAUAGGAAUCGGGAAACCGAUACCAGUAUGGAAACAUACCCUUGGCAGCGGAAUGAUUCAACGGAGUGAUGUUCCG [Theophylline A K4 20] | 327
ACGUAGCAGGCGGCCGCCACUCCGCAUAUGGAUCUCGAGUGAUGUUUGAGGGUGCCCAUCACAGCGAGGACCGGGCCAAUUAAGC [theeternabot_sameState_KL_Trp_B_10] | 105
GUUACGCAUGGAAGGAGCGCUCUCAUGCUUAAUAACACAGUGAUGUUGUGAAUUUGCAUAAAGCAGGUAGGUCGCCAUGUGUAAC [Ex Arginine B K4 8] | 303

same assay, conditions: Eterna round: R107; input ligand: none

Sequence | apparent KD of K4 kissing-loop reporter [nM]
ACGUAUAUCAGAGGAUAUCGUAUUAAUAUUUUAUCUAUAUAUUAUAGCAGUGAUGUUGCAAUUAUUCGAGAAGGCUGAUUUACGA [JR_SSFMNB_Sub023] | 139
GUAACCUUGCUCGAGUGAUGUUCGAGCGAAGGAGCGCGAGAAAUCGCAGGUAGGUCGCGCUCGAAAUUUGAGCGAACAAUUAUUA [Arg A Ex t2] | 138
GGCAUAUGAAAUCGCCUAGAGAGAAAGGAUACCAGCACCCGGCGGUGCCCUUGGCAGCCUAGCCCAGUGAUGUUGGGUCCUCUAA [Rasoonanxe] | 167
CGCCGCAAGGCGAGCGCUCCCACUCCGGAAGGAGCGCCCGAAAGGGCAGGUAGGUCGCCGGAGUGAUGUUCCGGUGGAGGGCUCG [#2 Exclusion - Arginine A Attempt #27 (Inspired by Omei)] | 432
UUUAUUAAGACGGCCGCCACUGAUUCAUAGUGAUGUUAUGAUAUAAUUUUAGUGAUUUUGAUUAGCAGGACCGGGUCAAUUAUUA [JR_ExcTryptoB_Sub016] | 196
GCAGACACGCAGUGAUGUUGCGAAACGGAAGGAGCGCGUGAAAACGCAGGUAGGUCGCCGAAACAUAAAUUAUAAUUUUGUUUGC [Arginine A K4 13] | 221
AAGUCAUAUAGAAGGAGCGUGUUUUUUAAUUUGUUUUCAUGAUCGAGUGAUGUUCGAUAUACACAGGUAGGUCGCUGUAUGAUAA [hbob_SS_Arginine_B_2t143] | 130
UUUGGUUUCUCGGCCGCCACUCGUUGUCUAUCGGCUUCAGGGAUAUAGUGAUGUUAUGUAUAGAAGAGGACCGGGAGAAGGUUCU [ExTryptoB.Dx] | 347
CCGAAGAACCAGUGAUGUUGGUUGACUAGACAGGAUAUGAGCAACAUCAGAAGGGUCUGGCUUCGGGAGUGGGCCGCGCUGACCU [Artilati] | 240
CCGGGCGGCUGAAGGAGCGGGCGGGCCCGAGUGAUGUUCGGGUGGGCCGUGAGGUCCGGUGCCCAGGUAGGUCGCGGUUCCGCCC [#2 Same State - Arginine B Attempt #10 (HarryS)] | 262
GCUAUGGUAGGAAGGAGCGCUGCGUUGUUUUUACGAGUGAUGUUCGGAAGCGGCGUGUUAAAGCAGGUAGGUCGCCUACUAUAGC [Arginine B K4 24] | 184
AGUGAUGUGGGAAGGAGCGCUACAAGACUUCAGUGAUGUUGAAGUGAUGAUUUAGUGUUGUAGCAGGUAGGUCGCCUAGAUGUUA [KL-XARG-B9] | 44.9
UGCUUAGUGAUGUUUGAUUUGGUGCAUGCAGAGGAUAUAGGGUGCUUUAGAAGGCUGAGGAGUGCGCCGAGUGAUGUUCGGCGCU [Exclusion FMN A GF11] | 206
AAAUUGUUUAGAGGAUAUUCUUUAUUCGACAUAACCUUCUAUAAGGUGCAGUGAUGUUGCAAUAUAGGAGAAGGUUGAGUGAUAA [Exclusion FMN B Gf 15] | 136
AAUAUCUAGUAUAUAUUUUAUAAAACAGAUACCAGUGAUUAUAUACACCCUUGGCAGCUGGACGAGUGAUGUUCGUAUAUAUUAA [JR_SSTheophyA_Sub008] | 147
UACAUAUAGUUAUUUCUACAUUUAUUUAGUCAGGAUAUCGAUUAGACGAGAAGGGACAAUAUCAAGUGAUGUUUGAUAAUUCAAA [JR_ExcFMNA_Sub011] | 68.4
